Test results published in patent US20220017589A1 (BEIJING QL BIOPHARMACEUTICAL, published 2022).

T1: human GFRAL (human, UniProt Q6UXV0 19-394)
T1 sequence (looked up): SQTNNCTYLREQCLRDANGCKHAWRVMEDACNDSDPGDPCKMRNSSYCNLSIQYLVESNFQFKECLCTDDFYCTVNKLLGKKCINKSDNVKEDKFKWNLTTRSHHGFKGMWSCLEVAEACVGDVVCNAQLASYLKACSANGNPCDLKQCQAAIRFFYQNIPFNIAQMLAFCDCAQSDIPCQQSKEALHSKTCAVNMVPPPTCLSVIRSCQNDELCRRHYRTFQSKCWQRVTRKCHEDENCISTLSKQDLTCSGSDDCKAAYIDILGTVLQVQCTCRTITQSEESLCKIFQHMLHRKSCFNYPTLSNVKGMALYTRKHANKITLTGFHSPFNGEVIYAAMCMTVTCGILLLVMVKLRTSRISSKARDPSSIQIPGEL


Assays:
Assay in all cases: cell-based or functional assay
[1] = biological target: T1, human GFRAL
[2] = biological target: T1, human GFRAL; remark: listed apart in the source
[3] = biological target: T2, human GLP-1 receptor (human, UniProt P43220 24-463)
[4] = biological target: T2, human GLP-1 receptor; remark: listed apart in the source

Row | Binder | GDF15 activity (EC50, pM, 1% HSA) [1] [pM] | GDF15 activity (EC50, pM) [2] [pM] | GLP-1 activity (EC50, pM, 1% HSA) [3] [pM] | GLP-1 activity (EC50, pM) [4] [pM]
1 | Native GDF15 (ligand) ARNGDHCPLGPGRCCRLHTVRASLEDLGWADWVLSPREVQVTMCIGACPSQFRAANMHAQIKTSLHRLKPDTVPAPCCVPASYNPMVLIQKTDTGVSLQTYDDLLAKDCHCI | 11.3 | 8.1 | – | –
2 | MLC105 (ligand, Moiety B (HOOC-(CH2)16-CO-gGlu-2XADO-EDA-CO-CH2) on 17C of Linker (48C of fusion polypeptide)) HGEGTFTSDVSSYLEEQAAKEFIAWLVRGGGGAQPGAQPGAQPGAQPCQAPGAQPGAQPGAQPGQEPGAQPGQEPGAQPGQEPGAQPGQEPGAQPGQEPGAQPGQEPGAQPARQGDHCPLGPGRCCRLHTVRASLEDLGWADWVLSPREVQVTMCIGACPSQFRAANLHAQIKTSLHRLKPDTVPAPCCVPASYNPMVLIQKTDTGVSLQTYDDLLAKDCHCI | 55.5 | 50 | 168 | 10
3 | MLC127 (ligand, Moiety B (HOOC-(CH2)16-CO-gGlu-2XADO-EDA-CO-CH2) on 26C of GLP-1 (20C of fusion polypeptide)) HGEGTFTSDVSSYLEEQAACEFIAWLVRGGGGAQPGAQPGAQPGAQPGAQPGAQPGAQPGAQPGQEPGAQPGQEPGAQPGQEPGAQPGQEPGAQPGQEPGAQPGQEPGAQPARQGDHCPLGPGRCCRLHTVRASLEDLGWADWVLSPREVQVTMCIGACPSQFRAANLHAQIKTSLHRLKPDTVPAPCCVPASYNPMVLIQKTDTGVSLQTYDDLLAKDCHCI | 72.8 | – | 872 | –
4 | MLC123 (ligand, Moiety B (HOOC-(CH2)16-CO-gGlu-2XADO-EDA-CO-CH2) on 79C of Linker (110C of fusion polypeptide)) HGEGTFTSDVSSYLEEQAAKEFIAWLVRGGGGAQPGAQPGAQPGAQPGAQPGAQPGAQPGAQPGQEPGAQPGQEPGAQPGQEPGAQPGQEPGAQPGQEPGAQPGQEPGQCPARQGDHCPLGPGRCCRLHTVRASLEDLGWADWVLSPREVQVTMCIGACPSQFRAANLHAQIKTSLHRLKPDTVPAPCCVPASYNPMVLIQKTDTGVSLQTYDDLLAKDCHCI | 1360 | – | 9.53 | –
5 | MLC126 (ligand, Moiety B (HOOC-(CH2)16-CO-gGlu-2XADO-EDA-CO-CH2) on 73C of Linker (104C of fusion polypeptide)) HGEGTFTSDVSSYLEEQAAKEFIAWLVRGGGGAQPGAQPGAQPGAQPGAQPGAQPGAQPGAQPGQEPGAQPGQEPGAQPGQEPGAQPGQEPGAQPGQEPGAQPCQEPGAQPARQGDHCPLGPGRCCRLHTVRASLEDLGWADWVLSPREVQVTMCIGACPSQFRAANLHAQIKTSLHRLKPDTVPAPCCVPASYNPMVLIQKTDTGVSLQTYDDLLAKDCHCI | 1670 | – | 9.67 | –
6 | MLC122 (ligand, Moiety B (HOOC-(CH2)16-CO-gGlu-2XADO-EDA-CO-CH2) on 5C of Linker (36C of fusion polypeptide)) HGEGTFTSDVSSYLEEQAAKEFIAWLVRGGGGAQPCQAPGAQPGAQPGAQPGAQPGAQPGAQPGQEPGAQPGQEPGAQPGQEPGAQPGQEPGAQPGQEPGAQPGQEPGAQPARQGDHCPLGPGRCCRLHTVRASLEDLGWADWVLSPREVQVTMCIGACPSQFRAANLHAQIKTSLHRLKPDTVPAPCCVPASYNPMVLIQKTDTGVSLQTYDDLLAKDCHCI | 70.2 | – | 434 | –
7 | MLC091 (ligand, Moiety B (HOOC-(CH2)16-CO-gGlu-2XADO-EDA-CO-CH2) on 35C of Linker (66C of fusion polypeptide)) HGEGTFTSDVSSYLEEQAAKEFIAWLVRGGGGAQPGAQPGAQPGAQPGAQPGAQPGAQPGAQPGQCPGAQPGQEPGAQPGQEPGAQPGQEPGAQPGQEPGAQPGQEPGAQPARQGDHCPLGPGRCCRLHTVRASLEDLGWADWVLSPREVQVTMCIGACPSQFRAANLHAQIKTSLHRLKPDTVPAPCCVPASYNPMVLIQKTDTGVSLQTYDDLLAKDCHCI | – | 34.9 | – | 2
8 | MLC092 (ligand, Moiety C (HOOC-(CH2)20-CO-gGlu-2XADO-EDA-CO-CH2) on 35C of Linker (66C of fusion polypeptide)) HGEGTFTSDVSSYLEEQAAKEFIAWLVRGGGGAQPGAQPGAQPGAQPGAQPGAQPGAQPGAQPGQCPGAQPGQEPGAQPGQEPGAQPGQEPGAQPGQEPGAQPGQEPGAQPARQGDHCPLGPGRCCRLHTVRASLEDLGWADWVLSPREVQVTMCIGACPSQFRAANLHAQIKTSLHRLKPDTVPAPCCVPASYNPMVLIQKTDTGVSLQTYDDLLAKDCHCI | – | 48.6 | – | 2.2
9 | MLC107 (ligand, Moiety B (HOOC-(CH2)16-CO-gGlu-2XADO-EDA-CO-CH2) on 25C of Linker (56C of fusion polypeptide)) HGEGTFTSDVSSYLEEQAAKEFIAWLVRGGGGAQPGAQPGAQPGAQPGAQPGAQPCQAPGAQPGQEPGAQPGQEPGAQPGQEPGAQPGQEPGAQPGQEPGAQPGQEPGAQPARQGDHCPLGPGRCCRLHTVRASLEDLGWADWVLSPREVQVTMCIGACPSQFRAANLHAQIKTSLHRLKPDTVPAPCCVPASYNPMVLIQKTDTGVSLQTYDDLLAKDCHCI | 58 | 59.3 | 39.9 | 1.1
10 | MLC093 (ligand, Moiety B (HOOC-(CH2)16-CO-gGlu-2XADO-EDA-CO-CH2) on 33C of Linker (64C of fusion polypeptide)) HGEGTFTSDVSSYLEEQAAKEFIAWLVRGGGGAQPGAQPGAQPGAQPGAQPGAQPGAQPGAQPCQEPGAQPGQEPGAQPGQEPGAQPGQEPGAQPGQEPGAQPGQEPGAQPARQGDHCPLGPGRCCRLHTVRASLEDLGWADWVLSPREVQVTMCIGACPSQFRAANLHAQIKTSLHRLKPDTVPAPCCVPASYNPMVLIQKTDTGVSLQTYDDLLAKDCHCI | 67.6 | 54.8 | 27.3 | 1.4
11 | MLC111 (ligand, Moiety B (HOOC-(CH2)16-CO-gGlu-2XADO-EDA-CO-CH2) on 51C of Linker (82C of fusion polypeptide)) HGEGTFTSDVSSYLEEQAAKEFIAWLVRGGGGAQPGAQPGAQPGAQPGAQPGAQPGAQPGAQPGQEPGAQPGQEPGAQPGQCPGQEPGQEPGAQPGQEPGAQPGQEPGAQPARQGDHCPLGPGRCCRLHTVRASLEDLGWADWVLSPREVQVTMCIGACPSQFRAANLHAQIKTSLHRLKPDTVPAPCCVPASYNPMVLIQKTDTGVSLQTYDDLLAKDCHCI | 194 | 54.9 | 7.52 | 11
12 | MLC080 (ligand, Moiety B (HOOC-(CH2)16-CO-gGlu-2XADO-EDA-CO-CH2) on 35C of Linker (66C of fusion polypeptide)) HGEGTFTSDVSSYLEEQAAKEFIAWLVRGGGGQEPGAQPGQEPGAQPGQEPGAQPGQEPGAQPGQCPGAQPGQEPGAQPGQEPGAQPGAQPGAQPGAQPGAQPGAQPGAQPARQGDHCPLGPGRCCRLHTVRASLEDLGWADWVLSPREVQVTMCIGACPSQFRAANLHAQIKTSLHRLKPDTVPAPCCVPASYNPMVLIQKTDTGVSLQTYDDLLAKDCHCI | – | 86.8 | – | 1.6
13 | MLC081 (ligand, Moiety C (HOOC-(CH2)20-CO-gGlu-2XADO-EDA-CO-CH2) on 35C of Linker (66C of fusion polypeptide)) HGEGTFTSDVSSYLEEQAAKEFIAWLVRGGGGQEPGAQPGQEPGAQPGQEPGAQPGQEPGAQPGQCPGAQPGQEPGAQPGQEPGAQPGAQPGAQPGAQPGAQPGAQPGAQPARQGDHCPLGPGRCCRLHTVRASLEDLGWADWVLSPREVQVTMCIGACPSQFRAANLHAQIKTSLHRLKPDTVPAPCCVPASYNPMVLIQKTDTGVSLQTYDDLLAKDCHCI | – | 69.8 | – | 1.2
